Sequences and labels used below:
T1: cynoCD46-His (cynomolgus, UniProt A0A2K5WCL8 35-328)
T1 construct: extracellular domain; Immobilised by amine coupling on the SPR chip; not shown: His tag
T1 sequence: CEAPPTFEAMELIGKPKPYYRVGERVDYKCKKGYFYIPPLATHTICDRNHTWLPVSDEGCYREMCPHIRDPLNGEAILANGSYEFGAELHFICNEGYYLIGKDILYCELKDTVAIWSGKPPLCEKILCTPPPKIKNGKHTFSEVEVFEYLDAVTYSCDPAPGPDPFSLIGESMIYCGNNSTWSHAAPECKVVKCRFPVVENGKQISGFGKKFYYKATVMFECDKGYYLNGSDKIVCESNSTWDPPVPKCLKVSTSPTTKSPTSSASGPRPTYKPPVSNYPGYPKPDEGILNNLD

T2: huCD46-His (human, UniProt P15529 35-343)
T2 construct: extracellular domain; Immobilised by amine coupling on the SPR chip; It may be the same protein as the ELISA antigen; also called Human CD46-His; human CD46; not shown: His tag
T2 sequence (looked up): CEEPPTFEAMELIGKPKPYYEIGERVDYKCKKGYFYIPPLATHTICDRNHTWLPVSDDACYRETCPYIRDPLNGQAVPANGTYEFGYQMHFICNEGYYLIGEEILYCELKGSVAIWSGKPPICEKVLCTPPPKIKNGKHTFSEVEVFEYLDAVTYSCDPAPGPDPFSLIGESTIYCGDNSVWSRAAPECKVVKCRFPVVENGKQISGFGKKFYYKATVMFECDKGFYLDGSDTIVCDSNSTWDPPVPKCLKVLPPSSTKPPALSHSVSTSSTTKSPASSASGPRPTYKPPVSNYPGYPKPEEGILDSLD

T3: recombinant cyno CD46 antigen (cynomolgus, UniProt A0A2K5WCL8 35-328)
T3 construct: extracellular domain; Plate-coated antigen of the ELISA; also called cynomolgus CD46 extracellular domain
T3 sequence: T1 sequence

B1: BA-133-04-03 (antibody, V domains shown)
VH: EVQLVESGGGLVQPGGSLRLSCAASGGSVSSYDISWIRQSPSRGLEWLGVIWTDGGTNYNSAFMSRFTISRDDSKNTAYLQMNSLKTEDTAVYYCERVYDGYPWFAYWGQGTLVTVSS
VL: AIQLTQSPSSLSASVGDRVTITCRASQGISNYLNWYLQKPGQSPQLLIYYTSSLFSGVPDRFSGSGSGTDFTLKISRVEAEDVGVYYCQQYIKLPWTFGQGTKVEIK
notes: also called CPE hit BA133-04-03
B2: BAP133-2-02-12 (antibody, V domains shown)
VH: B1 VH
VL: AIQLTQSPSSLSASVGDRVTITCRALQGISNYLNWYQQKPGKAPKLLIYYTSSLHSGVPSRFSGSGSGTEFTLTISSLQPDDFATYYCQQYIKLPWTFGQGTKVEIK
notes: also called BAP133-02-02-12; CPE hit BAP133-2-02-12
B3: BA-133-04-04 (antibody, V domains shown)
VH: B1 VH
VL: B1 VL with F55H, S56E
notes: the killing assays used the ADC form; also called CPE hit BA133-04-04

Substitutions are numbered along the chain they refer to.

One test deals with T1, cynoCD46-His. As to the kind of experiment: SPR, cynoCD46-His immobilised, antibody as analyte, pH 7.4. On the procedure:
(§1) Binding kinetics of anti-CD46 antibodies were measured by surface plasmon resonance on a SPR2/4 instrument (Sierra Sensors, Hamburg, Germany) and flat amine sensor chips. The SPR sensor contained four flow cells (FC1-FC4), each of which can be addressed individually or in groups. huCD46-His was immobilized in FC2, and cynoCD46-His was immobilized in FC4. No protein was immobilized in FC1 and FC3 which were used as control surfaces for FC2 and FC4, respectively.
(§2) All injections were done at a flow rate of 25 μL/min and 25° C. The sensor surface was activated with 1-ethyl-3-(3-dimethylaminopropyl)-carbodiimide (EDC) and N-hydroxysuccinimide (NHS) (200 mM/50 mM) for 480 seconds. Human CD46-His (2 μg/mL in 10 mM NaAc, pH5.0) was injected for 480s and the surface was inactivated by injecting 1M ethanolamine-HCl for 480s. cynoCD46-His was immobilized using the same conditions as described for huCD46-His, except that it was diluted into 10 mM NaAc buffer pH4.5. The control surface was activated and deactivated using the same conditions, but without injecting protein. PBST buffer (PBS pH7.4 with 0.05% TWEEN20™) was used as running buffer for the surface preparation. The running solution was switched to PBST with 30 mM sodium bicarbonate with the pH adjusted as indicated in the figures before the analyte injections. The instrument was equilibrated with the running solution for one hour before the first analyte injection.
(§3) The off-rate was measured for 360 s. The chip surface was regenerated after each cycle of interaction by injecting 6 μL of 10 mM glycine (pH 2.0). Flow cells 1 and 3 without immobilized protein were used as control surfaces for reference subtraction.
Background: Surface plasmon resonance follows binding to a sensor surface in real time, without labels.
As usually defined, the Kd is the equilibrium constant for the complex coming apart. A lower Kd goes with a tighter complex. For orientation: koff means a measure of how fast the partners let go of each other. Higher therefore signals fast dissociation. Broadly, the kon is the rate constant with which the complex forms. The low end stands for slower complex formation, the high end for faster complex formation. B1 had a Kd of 1.26 nM, a koff of 0.00153 s⁻¹ and a kon of 1.21e+06 M⁻¹ s⁻¹.

For B2, binding was put at a Kd of 3.88 nM, the off-rate constant (koff) came to 0.00192 s⁻¹ and the kon came out at 495000 M⁻¹ s⁻¹.

Consider B3, for which the Kd came to 2.28 nM, the koff was 0.00154 s⁻¹ and the association rate constant (kon) is 673000 M⁻¹ s⁻¹.

The next test concerns the target T4, cyno CD46 expressed on 293 cells (cynomolgus).
T4 construct: whole, on cells; The construct on the cells is not described; also called HEK 293 cells expressing cyno CD46
Put plainly: FACS, 293 cells expressing cyno CD46, pH 6.0. On the procedure: (§4) A similar FACS analysis was also carried out using 293 cells expressing cyno CD46. […] The EC50 values for binding to the 293 cells expressing cyno CD46 by the conditionally active anti-CD46 antibodies are summarized in Table 6.
Background: Flow cytometry measures light scatter and fluorescence of single cells or particles in a stream.
For orientation: EC50 means the concentration at which the effect is half-maximal. Consider B1, for which the EC50 was determined as 0.0411 µg/mL.

B2 had an EC50 of 0.198 µg/mL.

As to B3, it took 0.0947 µg/mL to reach a half-maximal effect (EC50).

The target in a further test is T4, cyno CD46 expressed on 293 cells. As to the kind of experiment: FACS, 293 cells expressing cyno CD46; EC50 at pH 7.4 over EC50 at pH 6.0. On the procedure:
as §4
As for B1, the “Ratio (pH 7.4/6.0)” value turned out to be 8.

With B2, the “Ratio (pH 7.4/6.0)” value is 14.8.

Take B3: the “Ratio (pH 7.4/6.0)” value was found to be 10.

The next test has the same target. As to the kind of experiment: FACS, 293 cells expressing cyno CD46, pH 7.4. On the procedure: as §4
The molecule B1 showed an EC50 of 0.33 µg/mL.

Consider B2, for which it took 2.92 µg/mL to reach a half-maximal effect (EC50).

On to B3, for which the EC50 worked out at 0.944 µg/mL.

A further test has as its target T1, cynoCD46-His. As to the kind of experiment: SPR, cynoCD46-His immobilised, antibody as analyte, pH 6.5. On the procedure: as §1, §2, §3
On to B1, for which the Kd worked out at 0.624 nM, the koff is 0.00142 s⁻¹ and the kon was determined as 2.28e+06 M⁻¹ s⁻¹.

The molecule B2 had a Kd of 1.47 nM, a koff of 0.0017 s⁻¹ and a kon of 1.16e+06 M⁻¹ s⁻¹.

On to B3, for which binding was put at a Kd of 1.09 nM, the koff is 0.00145 s⁻¹ and the kon worked out at 1.33e+06 M⁻¹ s⁻¹.

A further test concerns the target T2, huCD46-His. Put plainly: SPR, huCD46-His immobilised, antibody as analyte, pH 7.4. As to the method:
as §1, §2, §3
The molecule B1 showed a Kd of 4.8 nM, a koff of 0.00249 s⁻¹ and a kon of 519000 M⁻¹ s⁻¹.

Molecule B2 displayed a Kd of 8.79 nM, a koff of 0.00225 s⁻¹ and a kon of 256000 M⁻¹ s⁻¹.

B3: the Kd was found to be 4.93 nM, the koff is 0.00241 s⁻¹ and the kon is 490000 M⁻¹ s⁻¹.

The target in the next test is T2, huCD46-His. As to the kind of experiment: SPR, huCD46-His immobilised, antibody as analyte, pH 6.5. On the procedure: as §1, §2, §3
Consider B1, for which the affinity, expressed as Kd, was 2.07 nM; the koff turned out to be 0.00195 s⁻¹; the kon came to 941000 M⁻¹ s⁻¹.

Molecule B2 gave a dissociation constant Kd of 5.78 nM, a koff of 0.00282 s⁻¹ and a kon of 488000 M⁻¹ s⁻¹.

Turning to B3, the Kd was 1.91 nM, the koff came out at 0.00176 s⁻¹ and the kon stood at 922000 M⁻¹ s⁻¹.

Another test concerns the target T3, recombinant cyno CD46 antigen. As to the kind of experiment: ELISA, coated cyno CD46; EC50 at pH 7.4 over EC50 at pH 6.0. On the procedure:
The binding activities of conditionally active anti-CD46 antibodies to cyno CD46 were measured by ELISA and are shown in FIGS. 3-4. The EC50 values for binding to the cyno CD46 at pH 6.0 and pH 7.4 for the conditionally active anti-CD46 antibodies are summarized in Table 2.
[…] Cover with sealing film and place the plate onto a plate shaker set to 50 rpm for 60 minutes at room temperature. [0351] 6) Decant plates and tap out residual liquid on a stack of paper towels. [0352] 7) Serially dilute test articles in 3-fold dilutions starting at 3000 ng/mL in pH 6.0 or pH 7.4 ELISA incubation buffer. [0353] 8) Add 100 μL/well of diluted test articles to the plates [0354] 9) Cover with sealing film and place the plates onto a plate shaker set to 50 rpm for 60 minutes at room temperature. […] 10) Decant plates and tap out residual liquid on a stack of paper towels. [0356] 11) Wash wells three times by dispensing 200 μL of pH 6.0 or pH 7.4 ELISA wash buffer to the wells and completely aspirate the contents. [0357] 12) Dilute the HRP secondary antibody at 1:2500 in pH 6.0 or pH 7.4 ELISA incubation buffer. [0358] 13) Add 100 μL HRP secondary antibody diluted in pH 6.0 or pH 7.4 ELISA incubation buffer to each well [0359] 14) Cover with sealing film and place the plates onto a plate shaker set to 50 rpm for 60 minutes at room temperature. [0360] 15) Decant plates and tap out residual liquid on a stack of paper towels. [0361] 16) Wash wells three times by dispensing 200 μL of pH 6.0 or pH 7.4 ELISA wash buffer to the wells and completely aspirate the contents. [0362] 17) Dispense 50 μL per well of the TMB substrate solution into all wells of the plates. Incubate at room temperature for about 2 minutes 15 seconds or 2 minutes. […] 18) Add 50 μL per well of 1N HCl into all wells of the plates. Read plates at 450 nm using PerkinElmer, EnSpire 2300 Multilabel Reader.
(An ELISA detects its analyte on a solid surface through an enzyme-linked reagent.)
For the molecule B1, the “ratio (ph 7.4/pH 6.0)” value came out at 7.14.

In the case of B2, the “ratio (ph 7.4/pH 6.0)” value worked out at 13.3.

Take B3: the “ratio (ph 7.4/pH 6.0)” value was 13.

For the next test, the target named is T2, huCD46-His. As to the kind of experiment: SPR, huCD46-His immobilised, antibody as analyte, pH 6.0. On the procedure:
as §1, §2, §3
Molecule B1 displayed a Kd of 1.52 nM, a koff of 0.00179 s⁻¹ and a kon of 1.18e+06 M⁻¹ s⁻¹.

Take B2: binding was characterised by a dissociation constant (Kd) of 7.51 nM, the koff came to 0.00404 s⁻¹ and the kon was 539000 M⁻¹ s⁻¹.

In turn, B3 registered a Kd of 2.51 nM, a koff of 0.00207 s⁻¹ and a kon of 824000 M⁻¹ s⁻¹.

The next test concerns the target T1, cynoCD46-His. Put plainly: SPR, cynoCD46-His immobilised, antibody as analyte, pH 6.0. On the procedure:
as §1, §2, §3
B1 returned a Kd of 0.514 nM, a koff of 0.00143 s⁻¹ and a kon of 2.79e+06 M⁻¹ s⁻¹.

On to B2, for which the Kd was found to be 1.45 nM, the koff stood at 0.00184 s⁻¹ and the kon stood at 1.27e+06 M⁻¹ s⁻¹.

The molecule B3 registered a Kd of 1.02 nM, a koff of 0.00146 s⁻¹ and a kon of 1.42e+06 M⁻¹ s⁻¹.

For the origin of these results see patent publication US20230242662A1 (BIOATLA, published 2023).
